In publication PMC7017808:

Assays:
[1] = test system: T1, SigL (sigma-54) (Clostridium beijerinckii), ORF:07123114; test: EMSA; conditions: Not stated in the material; EMSA as in Zhang et al., 2014, with Cy5-labelled DNA
T1 sequence: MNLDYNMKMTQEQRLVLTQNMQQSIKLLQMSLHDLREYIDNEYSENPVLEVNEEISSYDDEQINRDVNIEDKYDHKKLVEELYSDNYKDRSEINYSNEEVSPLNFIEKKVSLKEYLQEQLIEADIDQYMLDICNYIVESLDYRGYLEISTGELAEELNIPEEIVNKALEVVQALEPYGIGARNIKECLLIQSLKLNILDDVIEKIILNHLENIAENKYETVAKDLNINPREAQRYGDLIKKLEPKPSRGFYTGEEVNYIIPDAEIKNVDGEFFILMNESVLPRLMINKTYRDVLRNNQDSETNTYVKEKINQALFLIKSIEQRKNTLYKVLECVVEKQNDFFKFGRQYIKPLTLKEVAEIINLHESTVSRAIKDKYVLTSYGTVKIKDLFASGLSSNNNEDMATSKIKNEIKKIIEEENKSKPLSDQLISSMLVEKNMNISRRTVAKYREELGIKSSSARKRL

[2] = test system: T2, AdhR-DBD (Clostridium beijerinckii), ORF:f910ab61; test: EMSA; conditions: Not stated in the material; EMSA as in Zhang et al., 2014, with Cy5-labelled DNA
T2 sequence: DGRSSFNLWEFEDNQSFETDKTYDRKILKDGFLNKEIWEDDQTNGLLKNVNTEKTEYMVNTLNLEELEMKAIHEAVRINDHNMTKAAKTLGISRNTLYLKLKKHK

| Sequence | binding [1] | binding [2] |
| --- | --- | --- |
| AGCCAGTGGCGATAAGTTTTAACCTCTCCTTGGATATTTTTTTTACTAGCATTCATCTATTACACTATTATATAAAGCAAGTTTTATACCAATATTATATTTATACATAAATAAATATAAATCATCTCATAATCGCACAATTCATGAATCGAAGTGTGCAACTTTAAAAAAATAGTGTGTAATTTAACTTACACACTGCCTTATCGCCACTGGCT (double strand) [adhA2 promoter -24/-12 fragment] | binds | – |
| AGCCAGTGGCGATAAGAACAAAAAACTCGTAATTCCTCAGAAATATTATATTTAAAGGTTTTAAATTAAGTTATTAAATATATATATAATAAGTTATACATAAATTGATTGTTAAGCATATACTCATTTATATAAATAATTTTTAACAAAGATATGTCCTAAAATAATACAGTATAAATTTAATACAGCGTAATATTTTAGGACATGCTTTATAATCTTATCGCCACTGGCT (double strand) [adhA1 promoter UAS fragment] | – | binds |
| AGCCAGTGGCGATAAGAAAGTAAAACACATAATAATTGTTTTTAAAGTGTTTTATTATCCTCAAAAGTGCATAAATGCTACGATTGAACTCATGATCACATTTTTATTTCTGCATCAAAAACTTGGCACGGTTATTGCTTTATATATAAGCATAAGAGAAACAAAACAAAATTATATAAAGTATAAAAACAAAAAGTATTAAAAGGAGAGAGCGAACTTATCGCCACTGGCT (double strand) [adhA1 promoter -24/-12 fragment] | binds | – |
| AGCCAGTGGCGATAAGTTAAATAAATAAACTATCATGAATCAAAAATTAACAATGTCTAAACTTAAAAAATGCAAAAAAATATATGTCCTAAAAGCATACAGTGTAATAAAACTGAACATTTTATTTATAAATTGTATTTTTTTAATACAGTAAATTTGCATTAGAAAAACTATATTGTTAATAATTAGATTATAAAATTTCAATAAATGGGGAGACTTATCGCCACTGGCT (double strand) [adhA2 promoter UAS fragment] | – | binds |
